Test results from article PMC2955809 (Structure (London, England : 1993), 2010).

Molecular target: the molecule itself
Experiment: SEC

B1: R.Eco29kI restriction endonuclease, E142Q (enzyme, E. coli strain 29K (plasmid pECO29), UniProt Q46944 1-214, looked up)
chain: MHNKKFDRSEHVYRNDSFLELIKDAVRFFSGTPVHSLPPPERFQGAGVYALYYTGHYSLYDEYSRINRLAYNLPIYVGKAVPAGWRQSRISDHETRAGSELSNRIREHGRNIAKTSNLDLCDFSCRFVIFEATGSDMISTVQAALIKIYKPLWNTVVDGFGNHTPGAGRFAQAKSDWDVIHPGREWAEKCTGVHSEPYFIEERIKQYFSKSNFT
Which “stoichiometry N” value does the source give for B1 here?
The value was 2.
